Results taken from the domain aggregation screens of Martell et al. (2025).

Assay: soluble fraction after stress (log2 fold change); higher = more stays soluble; pooled small domains, quantitative proteomics
Conditions: stress: 75 degC
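Further: 20 min heating vs room temperature control held 20 min.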

| Sequence | soluble fraction (log2) |
| --- | --- |
| HMLEIDPPVDEISVSRKAFYEAAGYKVNPYTHIPPRYRKEFEEHSFVVMSWPRELPEETYRKFDRYLRDV | 0.0575 |
| HMLEIRGFTVLLSDRGIVGIIEEIIQNPGQDLLRILSPEKREILVPLHSDLITGINKKKKTITMNLPDGL | -1.87 |
| HMLELTGEEEFVIRTLTRQGDLHINALVVETDIPINRMISLLFELEMKGVVKALVGGVYHLLG | -2.45 |
| HMLELTVSDKMARLMAWRNRRRVNLSDQELHRIAAAPKQSPESILKMLPGFLQDSVPEIWAELTGGRP | -1.24 |
| HMLENSLDHIEGIGPKTKDTLLTYFKSVSKIKSANPSILAELIGAAKTKILLAAFEKEKTTS | -0.7 |
| HMLENYEGFKQKILKLTGIDLSSYKERQMRRRIDSLIHRNNYDDYDEYFKALTQNSNLYDEFINYLTI | -0.823 |
| HMLEQEDMYGYQMIETLRERSEHSFDLKAGTLYPLLHALEQKGLITARDEASAAGRPRRYYHLTDAG | -0.354 |
| HMLERPLFTPEQYGRFRGKEARIRLSNPVEGRKTLTGSIVEATEERIVVFVEEEEREVTVPFQWIKSGNL | -0.544 |
| HMLESVMHSRIAEIISREGTAPAHMSMQEKIRVVHKLDADGILMMKGAVAEIADQLSVSVPTIYRYLNKPQ | -2.49 |
| HMLETILQIGKDGVGENLVKQVNDALEARELIKGRVLDNNLELDARTAAQILAKATRSEVVQVIGTKFV | -0.00194 |
| HMLEVTQTDVKMYTTSGTPVYAAPDLNSAIVVYLERFVNVTVTGITDNGFYRVNLNGDYYIPGPYLISSV | -3.92 |
| HMLEYIEPRTAVQIHGIKAKPELNGKRGMVMGYAPERMRYRVRIDVGEGTGGKESEEVYLKPENVIAVK | 0.0615 |
| HMLFKGDTREENVILEFLSKNGTTSSDAIIKQTGLSASEFNQAITMLELKGLALNNGGEKWSL | 0.304 |
| HMLGDAVLRQVLETIPEDPAVDYLELRRNTGMTEADLDRVLADLENLGVINKKRTVEQVLYWRT | -0.651 |
| HMLGDAWSMLILRDAHSGFSRFDQFRKSLGIAPTMLTKRLSVLVDEGLLEKRQYSEHPPREEYVLTQAGQD | -0.0775 |
| HMLGERIRTLRKEIGMSVTELARRVKTSPSHISEIERGEKMPSLNLLVKIAKELKTSIDYLTGLVG | -0.498 |
| HMLGNIERALEMLQEVAATMDPVDIRLLLSMAQVESVRGNTEAAVKLIDEALVIDPGNERIEQIRLRVL | -0.482 |
| HMLGRPDMSPIPEGSRNNDLHAWGFGRLANHPDNKRQIEADFFERGRISGLGDAEIRASWNSILRQLGHQ | 0.0693 |
| HMLGSVRTIRQVLDDGRLIVADGGGNPSVIRRSGALAHETFANGQRVIVDPSGRLALELLPD | 0.171 |
| HMLGVLEYYNNGQKKSERTFKGGMQIYTEWYENGQMKAEERKWIDQLGSLKFLNLLSTEWDENGNEISRME | -1.55 |
| HMLGYGEQEREAQKYLEMHTAFQADPSLQKMYLPENQYALISKVMEMTGIKNVKSYLTPPNEL | -0.193 |
| HMLHVRSALMSELDGIEGIGEKRKRLLFDAFITRDAIAAATLEQLMAVKGMNRPSAEAVHKHFHG | -0.985 |
| HMLIELKIPSEWAGKSLHTLNLRQNYNVNVIGFRDEKSGKLNTHFDPSKKLPDEGIILVVADNRTLEKF | -0.7 |
| HMLIIDLPDFTNKKLSELQQWADANQITLKIVEKDVSSKPYDTILEQTPAKNKYEKIVKGSTMTVTVNIK | -0.965 |
| HMLINFPNKLKRLRLANNLTQQELANILETTKQAVSSYESGKSTPSLNSLIKLSEHFNISLDSLVFD | -0.038 |
| HMLINIKTNSAVNVRSGPGMGFEVVNTYPSGYILQAKEMQKDGGDNVWYKVKDGWLSANYTIDI | -0.787 |

| Sequence | soluble fraction (log2) |
| --- | --- |
| HMLINPLDILRNFNLSLYDDSRDSASNKEIDEIFESIKTNNSHIFSTLKAYRIPLPIASLIIKKIIKITLE | -0.891 |
| HMLISDENMLRDLVQAVLDENPKSVSDYKSGKTKAFGFLVGQTMKAVKGQADPMLVNKILTELLN | 0.236 |
| HMLISYRVDALANEAGLSVDTIRYYQKLGILDPPKRTGRHSEYSPDHLERLIEIRRLADAGLTLSQISEI | -2.55 |
| HMLKAKKIPVSDLEKFKGIVAEDVVSKAKALILPRGSNLSWLSNVAKKNLIAKLKAEGIEYISVYSS | -0.47 |
| HMLKDGPIGAYADSVIRDIIEKMERFSKEHINVDMLKIHEKIMLIDEPIIRMALLDEFHRVSHDN | -2.47 |
| HMLKEKETRALANFTNKFFGLDISEDLKPIALSELSKFKKTHKISNLEEFINSFQYDFQNEKILSLLDIFL | -1.34 |
| HMLKFPIGTHVGKKKPSANLSLPNKHGVVIGHGERRNAKGAIMRFYIVETTHSSRPEEWAPGITYPL | -2.72 |
| HMLKHEEIQEYIKEQINSGTWKPKAKLPSLRDMSELFSTSIGTVLTAYSALEKKHIIYSIPRSGYYVLG | -4.48 |
| HMLKLEDIKKDAQVKGIVDGQIVRIVTVEPIGDHALTVYYKDHQGQFAERMLFRSDELNLELATA | -0.244 |
| HMLKLSGEESQQLALRLREELARRRITRQGLADAAKISISTLEQVLAGRRTFTLATIVRLEEGLGIKLL | -2.65 |
| HMLKNKSTGNINETKAILELALNHSHFKVFDNRDMTVTFKNLATQFTTMQRILVQMFFPLPAGVELIIE | 0.428 |
| HMLKNYATPEQRAQLDMLKDKGIIGENELMQLGKYPSQDKASEVLENHADAVKMLDSDEISNRAEAIRSHD | 0.173 |
| HMLKPQQTQRIYAMAARLGVLESGNKNDMLHTIVYRLTQKESIRSLNENEYKTVVSELAERLKL | -1.12 |
| HMLKQLGRQEGRQEGAVDALRTVLALQIEQRFGPLDPTVQALIVAADIDALQRALSRVAVVSDLGAVFPP | -0.875 |
| HMLKRLTVEFSAEMPKKMTSEQKEELASVLSEDPRPAYQNDENREYGLDYGEFSVKFKVKDGVLTVTSVTE | -0.0802 |
| HMLLNLSPIETQVLRLIQQDKKVTYESIGKELTIGQTKVYKVLGHLKELNVIERIGGRTYGHWHILL | -1.33 |
| HMLLNPFERLTERELEIADLYAKGYGNLEIANFLSIKQNTVSTYKKRIFEKLGIDNLVELIELIKNY | 0.265 |
| HMLLQTRQRHEALAALGYFKGDVAAAWGPASEEALRAAQAAFGITVDGKWGPQTEDAIQGALQV | -0.357 |
| HMLLREKLESVLPFISVSALAKTYFKRSPQWFYQRLNGSIVNGKPIRFNDAELKTLAGALTDIGKKISQAA | -0.285 |
| HMLLSEPSVLKFNDDNSYEIVSGFLTEYKDKIVKIERRYKKATVKITVAGEEKEIKVSFVEDTE | -1.43 |
| HMLLSTHVVVAKEDVQIGTRLQPAMLQVVDWPSASPLKNPLTSIEQATDRVVNMPLVKGEPISMSKLAAKG | -0.296 |
| HMLLTASNYFKETKGINFSELPEALQKGHSFVIKSTENGTNWNAYSTSQNIQRVIDAYFSKLDEYLEKNQ | -0.578 |
| HMLLTHEEQIVKRGWQAPVGPFAILDSRAEAMHGDLEMLRGDREAAEQHFRRAWQIIGPIVEQ | -0.0144 |
| HMLMKILTDALEKMSPEELKELAEATGVKNTSSITPETMVGVFQAVFRVGGFKSYQLTLIIVNAVLKA | -0.148 |
| HMLMRKAEVGVESLNLRHGPGTQYKVLEILPGGKSLHYLAEPRRGWVRVTTEEGTTGWTFLKFLKPE | -2.22 |
| HMLNENNHGEWSIRMSNGLVVRLGRDELNRSLRRSIMAYAGLAPNYRSSIEYIDARYLGGVALKTF | -0.159 |

| Sequence | soluble fraction (log2) |
| --- | --- |
| HMLNKRQAEILAEVSRLKEITPSELYKLQPNVSSRTLRRDMDVLVNKGLVSQDGSTKSTKYTYL | 0.193 |
| HMLNMTLGDRIRSRREELRMSQEELATRLGYKSRSTIAKIESGENDLTQSKIVAFAEALSTTARWLLDY | -1.88 |
| HMLNVNDVIARNVRAARERKKLTLDGAAELTGVSRSMLAQIEKGEVNPTISVVWKIANGFKVSFTSLVEPQ | -3.85 |
| HMLPAGSDAILRYLSSGAVKGIGVATAARIVEKFGDETLRILEEEPGRLAEIKGITAAKAKAIGEAFAGQ | -0.356 |
| HMLPELIVTTKKGVTVTVTNGVITYSATSNGKATFTVPNYGKWTVSATINGTVISKVVDVTEAKQIPVLLG | -1.07 |
| HMLPERIQTIVALIGHGRAMDLVREFGGQEIKFPAQEGNDTWAALVEVIGEAATRKLAAVFGGGQAPPVYI | -1.17 |
| HMLPGVPVVAGKTQSAATRILKAAGYAVSVVREEAFDGVTGTVLRTSPEAGSPLAPGSRVTLVVLQVV | -2.22 |
| HMLPGWMETKFTANVSENTKNRTLEEHVLKMLNNKESAAEFIIFLHEKMMSVSGQVFQLDSR | -0.013 |
| HMLPIGSSREQVISSLNKMHQDYKEEGNFIYAGYFKQGLPLVPSPRISIALQFNETAHLEKIDATLNYV | -0.343 |
| HMLPKLAEEYAIMEIRGKGENLTAKLINKGGDSFMVRNGTVLQTGHRIDEITQTYVRAEINGMKDYLYFA | -0.645 |
| HMLPLLAFDEKLNRLGYGGGFYDRTLASLAHKGNTITAIGIAYESQKMDKVPTGYFDRPLDGVLTPSGLIM | 0.0528 |
| HMLPNLWVMGPGDHLWRVAEVAMTKHLGRPVANHEIDGYWRRLVALNRESLIDPDNPDLVFAGQVIELPPF | -2.59 |
| HMLPQGKGTAMWLADHLAAASVTLDAGARKLLEDTLGEDMSRLPGVLRVLEATFGSDAGRLSAEDIEPFL | 0.075 |
| HMLPRNKRIEIALTYIYGLGRHAATVVLKHANISPDKRTDDLDENDVRKLRDAIDANFRVEGDLRR | -1.55 |
| HMLPTVSITGHIFIRSGSPLNRIFVGEKIYHVGDHIDRDWVIESIGIDTLTIRSGTLSTQLPL | -2.99 |
| HMLPVFNYQVYRTHGLIYVYAKDNDSFDQIARSMGFKAKQLMKFNEVPEDFPLQAGDIVYLEKKKK | -2.35 |
| HMLPVLEIGTMIRIIRQPHFGTIARVVALPEELTKVESETLVRILDAEFDDGTRVRIPRANVEVIE | -3.04 |
| HMLPYGDRRRHTDNTISRIRELAAALDDSGIADRLNQDGYVTPEGKPFTYAGVRWIRYKYDISGPYERN | -1.91 |
| HMLQKVELSDNEKFIFDSLQKEQKMALLRLKELVNLSNKAWDVSVKNLTKQGLVKVTKIDEELLIEI | -0.845 |
| HMLQPQMKKFLNYESARNKMRPFGLSTRKEWRLFVDEGNRPADIPGDPYKKYKNKGWISWPHFLGK | -1.42 |
| HMLRDTTLLHIDSIVRDGSTAMANITVRDEGTDLEFPLQLRMERGDMGWQVVRIVNYRAYLEAVQKA | -0.351 |
| HMLRGKNALMSQLDQIQGIGPKRKRALFNHFLTLDAIKQADVETLRQAPGMNLPAAEQVYRHFHM | -0.2 |
| HMLRIIDYNRVVKDLNGLTPEQLLEKLAESFTVEDKGTEEYRPTELHNFSMYLGGHWYSLTAKPGTYDDND | -1.2 |
| HMLRMTRNRQKLVEVLMESGRPLSADEIREAAGFASTDLVTVYRNLEAFQSAGLLQRIPLENGSQLFELT | -0.46 |
